By Km is commonly meant the substrate concentration at which the rate is half of its maximum. The term Vmax denotes the rate approached at saturating substrate.

Consider one protein from US20070031907A1, “Anaplastic lymphoma kinase assay, reagents and compositions thereof” (Istituto Nazionale Per Lo Studio E La Cura Dei Tumori, priority 2003, published 2007).

Substrate in this data set: CC[C@H](C)[C@H](NC(=O)[C@H](CC(=O)O)NC(=O)[C@H](CCCNC(=N)N)NC(=O)[C@H](C)N)C(=O)N[C@@H](Cc1ccc(O)cc1)C(=O)N[C@@H](CCCNC(=N)N)C(=O)N[C@@H](C)C(=O)N[C@@H](CO)C(=O)N[C@@H](Cc1ccccc1)C(=O)N[C@@H](Cc1ccccc1)C(=O)N[C@@H](CCCNC(=N)N)C(=O)N[C@@H](CCCCN)C(=O)NCC(=O)NCC(=O)N[C@@H](CS)C(=O)N[C@@H](C)C(=O)N[C@@H](CCSC)C(=O)N[C@@H](CC(C)C)C(=O)N1CCC[C@H]1C(=O)N[C@H](C(=O)N[C@@H](CCCCN)C(=O)O)C(C)C
Kind of data set: Peptide phosphorylation (radioactive assay) with rALK. It counts as biochemical, human. Conditions: other: kinetic constants for rALK with synthetic peptides as substrate; pH 7.5; 30.0 °C.

Description: The reactions were terminated after 10 min of incubation at 30° C. by spotting 25 μl of the mixture onto P81 phosphocellulose papers, which were processed as described elsewhere (1). Kinetic constants were determined by GraphPad Prism software fitting the data directly to the Michaelis-Menten equation using nonlinear regression.

B1: rALK (ALK catalytic domain, Leu1073 to Ala1459) (Homo sapiens) (protein)
chain: LQSPEYKLSKLRTSTIMTDYNPNYCFAGKTSSISDLKEVPRKNITLIRGLGHGAFGEVYEGQVSGMPNDPSPLQVAVKTLPEVCSEQDELDFLMEALIISKFNHQNIVRCIGVSLQSLPRFILLELMAGGDLKSFLRETRPRPSQPSSLAMLDLLHVARDIACGCQYLEENHFIHRDIAARNCLLTCPGPGRVAKIGDFGMARDIYRASYYRKGGCAMLPVKWMPPEAFMEGIFTSKTDTWSFGVLLWEIFSLGYMPYPSKSNQEVLEFVTSGGRMDPPKNCPGPVYRIMTQCWQHQPEDRPNFAIILERIEYCTQDPDVINTALPIEYGPLVEEEEKVPVRPKDPEGVPPLLVSQQAKREEERSPAAPPPLPTTSSGKAAKKPTAA
notes: A portion of ALK, stretching from amino acids Leu^1073 to Ala^1459, has been cloned into the baculovirus transfer vector; made in house; host or cells: Sf9 (Spodoptera frugiperda) insect cells, baculovirus (pBlueBacHis2C, MaxBac 2.0)
B1: the Michaelis constant (Km) amounted to 109.4 µM and the Vmax worked out at 0.000186 µmol/min.
